Experiments:
[1] = test system: Pab1p (poly(A)-binding protein) (Saccharomyces cerevisiae); experiment: single-molecule eIF1 dwell time, hyperbolic fit; conditions: 5' cap, 3' poly(A) tail
[2] = test system: Pab1p (poly(A)-binding protein) (Saccharomyces cerevisiae); experiment: EMSA

PAB1 mRNA, capped and poly(A)-tailed
Kd [1]: 13 nM

PAB1 mRNA, non-polyadenylated
Kd [2]: 25 nM
